Molecular target: T1, recombinant soluble PSMA (rsPSMA) (human, UniProt Q04609 44-750)
T1 construct: Oligomeric state not specified for the assay; also called secreted rsPSMA; PSMAECTO
Experiment: Biacore SPR, mAb captured by anti-human IgG, rsPSMA in flow
Description: It is ideal for screening crude supernatants.
The entire sensor chip surface was conditioned with five injections of conditioning solution (1 M NaCl, 50 mM NaOH) and equilibrated with PBS buffer containing 0.005% polysorbate 20. Two to three thousand resonance units (RU) of biotinylated anti-human IgG antibody (Sigma) were immobilized onto the SA chip followed by an injection of regeneration buffer (glycine-HCl, pH 2.2). […] For each antibody at one concentration, the chip was regenerated and equilibrated.

T1 sequence (Q04609 44-750): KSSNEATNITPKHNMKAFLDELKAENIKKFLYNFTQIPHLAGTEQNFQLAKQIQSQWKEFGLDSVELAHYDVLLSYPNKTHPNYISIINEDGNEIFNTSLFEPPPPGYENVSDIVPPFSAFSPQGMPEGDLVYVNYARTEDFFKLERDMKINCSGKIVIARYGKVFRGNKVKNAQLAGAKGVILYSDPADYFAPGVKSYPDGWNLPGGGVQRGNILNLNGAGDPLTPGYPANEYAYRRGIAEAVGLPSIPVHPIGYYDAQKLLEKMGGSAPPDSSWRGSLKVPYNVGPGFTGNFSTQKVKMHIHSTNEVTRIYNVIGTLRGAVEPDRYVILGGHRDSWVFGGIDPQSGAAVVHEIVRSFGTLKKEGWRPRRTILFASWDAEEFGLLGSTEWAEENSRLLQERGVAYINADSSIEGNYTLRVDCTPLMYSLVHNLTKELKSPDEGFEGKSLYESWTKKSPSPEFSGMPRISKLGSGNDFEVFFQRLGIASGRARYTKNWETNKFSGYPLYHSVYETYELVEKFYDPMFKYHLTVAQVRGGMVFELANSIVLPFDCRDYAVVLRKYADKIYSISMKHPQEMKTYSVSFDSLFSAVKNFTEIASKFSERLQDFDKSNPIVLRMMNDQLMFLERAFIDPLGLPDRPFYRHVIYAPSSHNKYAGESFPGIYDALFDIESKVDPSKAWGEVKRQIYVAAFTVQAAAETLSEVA

B1: PSMA 10.3 (antibody, V domains shown)
VH: QEQLVESGGGVVQPGRSLRLSCAASGFTFSTYGMHWVRQAPGKGLEWVAVTWHDGSNKYYADSVKGRFTISRDNSKNTLYLQMNSLRAEDTAVYYCARGGVGATYYYYYGMDVWGQGTTVTVSS
VL: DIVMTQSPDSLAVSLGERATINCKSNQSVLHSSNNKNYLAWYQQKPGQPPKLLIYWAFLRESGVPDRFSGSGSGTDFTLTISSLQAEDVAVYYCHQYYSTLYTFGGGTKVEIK
  Kd: 193 pM
